Measurements taken from the supplement of paper PMC7877785.
± gives the uncertainty stated by the source.

Experiment: self-splicing fitness, log relative to wild type (ln ratio); higher = more splicing; Tetrahymena group I intron in knt gene, E. coli kanamycin selection, DiMSum; sequences stand for … in CUCUCU…GGAGGGAAAAGUUAUCAGGCAUGCACCUGGUAGCUAGUCUUUAAACCAAUAGAUUGCAUCGGUUUAAAAGGCAAGACCGUCAAAUUGCGGGAAAGGGGUCAACAGCCGUUCAGUACCAAGUCUCAGGGGAAACUUUGAGAUGGCCUUGCAAAGGGUAUGGUAAUAAGCUGACGGACAUGGUCCUAACCACGCAGCCAAGUCCUAAGUCAACAGAUCUUCUGUUGAUAUGGAUGCAGUUCACAGACUAAAUGUCGGUCGGGGAAGAUGUAUUCUUCUCAUAAGAUAUAGUCGGACCUCUCCUUAAUGGGAGCUAGCGGAUGAAGUGAUGCAACACUGGAGCCGCUGGGAACUAAUUUGUAUGCGAAAGUAUAUUGAUUAGUUUUGGAGUACUCGUGGUCG
Method in brief: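 A randomised library covering all eight P1ex-region intron nucleotides was built with the intron in the knt kanamycin-resistance gene on pET-22b(+) and held in E. coli BL21(DE3). Cells were grown overnight at 37°C or 30°C on LB agar, with or without 25 μg/mL kanamycin, plus 100 μg/mL carbenicillin, 50 μM IPTG and 0.2% rhamnose, and pooled colonies were amplicon-sequenced on an Illumina HiSeq 2500. DiMSum fitness is the error-weighted combination of wild-type-normalised replicate fold changes, kanamycin versus none.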

Sequence	self-splicing fitness (ln) (30 °C)	self-splicing fitness (ln) (37 °C)
AAGCAGCAAUAUUACGAUAU	-0.287 ± 0.076	-0.0114 ± 0.099
AAGCAGCAAUAUUACGAUCU	-0.0506 ± 0.075	0.801 ± 0.09
AAGCAGCAAUAUUACGCAUU	-2.49 ± 0.12	-1.23 ± 0.12
AAGCAGCAAUAUUACGCCGC		-2.37 ± 0.45
AAGCAGCAAUAUUACGGCUA	-0.14 ± 0.066	0.0975 ± 0.086
AAGCAGCAAUAUUACGGUGG	-3.64 ± 0.18	-1.98 ± 0.17
AAGCAGCAAUAUUACGUAAC	-2.67 ± 0.11	-1.94 ± 0.14
AAGCAGCAAUAUUACGUGCA	-0.892 ± 0.065	-0.453 ± 0.084
AAGCAGCAAUAUUACGUUCG	-1.98 ± 0.089	-0.509 ± 0.1
AAGCAGCAAUAUUACGUUGG	-3.77 ± 0.17	-1.45 ± 0.11
AAGGAGCAAUAUUACGAAAG	-2.93 ± 0.21	
AAGGAGCAAUAUUACGACCG	-2.16 ± 0.29	
AAGGAGCAAUAUUACGACUG	-1.75 ± 0.16	-1.05 ± 0.18
AAGGAGCAAUAUUACGACUU	-1.12 ± 0.086	-1.26 ± 0.1
AAGGAGCAAUAUUACGAGGA	-3.21 ± 0.46	-1.95 ± 0.38
AAGGAGCAAUAUUACGAUUA		-1.96 ± 0.28
AAGGAGCAAUAUUACGCCUA	-1.21 ± 0.15	-1.35 ± 0.14
AAGGAGCAAUAUUACGCCUG	-2.1 ± 0.28	-0.484 ± 0.44
AAGGAGCAAUAUUACGCGAC	-2.44 ± 0.41	-1.54 ± 0.35
AAGGAGCAAUAUUACGCUUA	-1.49 ± 0.17	-1.1 ± 0.16
AAGGAGCAAUAUUACGGCAC	-1.23 ± 0.47	-1.62 ± 0.46
AAGGAGCAAUAUUACGGGGC	-3.81 ± 0.22	-2.34 ± 0.16
AAGGAGCAAUAUUACGGUCG	-2.96 ± 0.22	
AAGGAGCAAUAUUACGUAUC		-2.8 ± 0.44
AAGGAGCAAUAUUACGUCCA	-1.29 ± 0.16	-0.459 ± 0.16
AAGGAGCAAUAUUACGUCCC	0.0851 ± 0.15	-1.06 ± 0.23

Sequence	self-splicing fitness (ln) (30 °C)	self-splicing fitness (ln) (37 °C)
AAGGAGCAAUAUUACGUCGA	-1.74 ± 0.2	-1.89 ± 0.2
AAGGAGCAAUAUUACGUCGG	-3.13 ± 0.19	-2.74 ± 0.33
AAGGAGCAAUAUUACGUCGU	-2.73 ± 0.11	-0.982 ± 0.12
AAGUAGCAAUAUUACGAAAU	-2.3 ± 0.2	-0.59 ± 0.18
AAGUAGCAAUAUUACGACGC	-0.792 ± 0.12	0.204 ± 0.14
AAGUAGCAAUAUUACGAGGC	-3.44 ± 0.29	
AAGUAGCAAUAUUACGAUAA	-1.36 ± 0.12	-1.09 ± 0.13
AAGUAGCAAUAUUACGAUUA	-0.56 ± 0.1	-0.688 ± 0.08
AAGUAGCAAUAUUACGAUUC	-0.923 ± 0.12	-0.577 ± 0.15
AAGUAGCAAUAUUACGCACA	-0.522 ± 0.088	-0.00649 ± 0.14
AAGUAGCAAUAUUACGCACG	-1.5 ± 0.13	0.587 ± 0.13
AAGUAGCAAUAUUACGCGGA	-2.09 ± 0.18	-1.04 ± 0.15
AAGUAGCAAUAUUACGCGUC	-1.96 ± 0.12	-2 ± 0.19
AAGUAGCAAUAUUACGCUUA	-0.794 ± 0.14	-0.587 ± 0.14
AAGUAGCAAUAUUACGGCGG	-2.56 ± 0.17	-0.842 ± 0.15
AAGUAGCAAUAUUACGGGAA	-2.74 ± 0.2	-2.8 ± 0.23
AAGUAGCAAUAUUACGGGCA	-1.25 ± 0.088	-0.149 ± 0.098
AAGUAGCAAUAUUACGGUAG	-2.85 ± 0.22	-2.72 ± 0.2
AAGUAGCAAUAUUACGGUCA	-0.974 ± 0.094	-0.354 ± 0.1
AAGUAGCAAUAUUACGGUUG	-2.78 ± 0.1	-2.16 ± 0.11
AAGUAGCAAUAUUACGUAGC	-3.25 ± 0.33	-2.3 ± 0.31
AAGUAGCAAUAUUACGUAUC	-2.36 ± 0.14	-1.15 ± 0.11
AAGUAGCAAUAUUACGUGAG	-1.57 ± 0.048	-0.575 ± 0.066
AAGUAGCAAUAUUACGUGGC	-2.22 ± 0.18	-3.29 ± 0.39
AAGUAGCAAUAUUACGUGGG	-3.49 ± 0.2	-3.24 ± 0.23
AAGUAGCAAUAUUACGUUUC	-3.93 ± 0.33	-2.03 ± 0.21

Sequence	self-splicing fitness (ln) (30 °C)	self-splicing fitness (ln) (37 °C)
AAGUAGCAAUAUUACGUUUG	-2.41 ± 0.13	-1.49 ± 0.13
AAUAAGCAAUAUUACGAAGU	-3.44 ± 0.18	-1.94 ± 0.17
AAUAAGCAAUAUUACGAAUA	-1.54 ± 0.13	-1.62 ± 0.15
AAUAAGCAAUAUUACGACUU	-0.182 ± 0.065	0.451 ± 0.094
AAUAAGCAAUAUUACGAGUA	-1.67 ± 0.19	-0.925 ± 0.16
AAUAAGCAAUAUUACGAUAU	-1.71 ± 0.11	-0.747 ± 0.13
AAUAAGCAAUAUUACGAUGU	-0.62 ± 0.076	-0.682 ± 0.11
AAUAAGCAAUAUUACGCCCC	0.198 ± 0.2	-0.311 ± 0.24
AAUAAGCAAUAUUACGCCCG	-1.39 ± 0.15	-0.203 ± 0.18
AAUAAGCAAUAUUACGCCGU	-1.24 ± 0.11	-0.293 ± 0.11
AAUAAGCAAUAUUACGCCUA	0.0474 ± 0.09	-0.183 ± 0.098
AAUAAGCAAUAUUACGCGUA	-1.25 ± 0.14	-0.929 ± 0.13
AAUAAGCAAUAUUACGCUAC	-3.62 ± 0.34	-1.82 ± 0.23
AAUAAGCAAUAUUACGCUAU	-2.74 ± 0.16	-2.24 ± 0.18
AAUAAGCAAUAUUACGCUGG	-1.81 ± 0.17	-1.5 ± 0.21
AAUAAGCAAUAUUACGGACU	-0.768 ± 0.071	0.349 ± 0.1
AAUAAGCAAUAUUACGGAUG	-2.21 ± 0.1	-1.39 ± 0.1
AAUAAGCAAUAUUACGGCAG	-0.454 ± 0.11	-0.547 ± 0.16
AAUAAGCAAUAUUACGGCUC	-0.468 ± 0.13	0.129 ± 0.15
AAUAAGCAAUAUUACGGGGG	-2.91 ± 0.19	-2.75 ± 0.21
AAUAAGCAAUAUUACGGUCA	-0.268 ± 0.084	0.155 ± 0.12
AAUAAGCAAUAUUACGGUGC	-3 ± 0.15	-2.26 ± 0.23
AAUAAGCAAUAUUACGGUGG	-4.07 ± 0.17	-2.31 ± 0.13
AAUAAGCAAUAUUACGUACG	-0.966 ± 0.14	-0.239 ± 0.17
AAUAAGCAAUAUUACGUAGC		-2.38 ± 0.27
AAUAAGCAAUAUUACGUCGC	-2.48 ± 0.16	-1.21 ± 0.14
